Tests used:
Hfq:D9A-S38W = Hfq:D9A-S38W (Escherichia coli, UniProt P0A6X3 1-102, D9A;S38W); assay: tryptophan fluorescence quenching
Hfq:E18A-S38W = Hfq:E18A-S38W (Escherichia coli, UniProt P0A6X3 1-102, E18A;S38W); assay: tryptophan fluorescence quenching

## GUGGUCAGUCGAGUGG (ssRNA) [oligo C]
Hfq:D9A-S38W
  binding result: binds
Hfq:E18A-S38W
  binding result: binds
